In patent US20260232732A1 (FUNDACI INSTITUT DE RECERCA CONTRA LA LEUC MIA JOSEP …, published 2026) one finds OD450 data, which are given here for 5 molecules.

Test [1] deals with T1, biotin-peptide TSSMEDYVNF (human).
T1 peptide: Biotin-TSSMEDYVNF
Kind of test: ELISA biotin-peptide; scFv 10 ug/mL; repI. How it is done: (§1) The peptides were synthesized naked or with a N-terminal Biotin modification with a purity of >98%. All four scFvs were verified by ELISA that can be detected with anti-His antibodies. ELISA was performed for scFv-peptide binding validation. Briefly, naked peptides were coated (50 μg/mL) in 0.58M carbonate-bicarbonate buffer pH9.5, 100 μL/well, 4° C. O/N. Then after blocking (3% BSA-PBS, 300 μL/well 37° C. 1.5 h) and washing (PBS+Tween-20 0.05% v/v (0.05% PBST), wells were incubated with each purified scFv antibody at concentration of 1 μg/mL in PBS at 37° C. 1 h. After washing (0.05% PBST), wells were incubated with secondary antibodies (goat anti-His IgG-HRP) in PBS, 37° C., 30 min. After washing, and incubation with TMB substrate, reactions were stopped with 2M HCl and reading was quantified at OD450.
(§2) Then a library of overlapping peptides were designed and constructed separately to produce 16 different peptides, covering full antigen sequence of total 48 aa. Peptide size was 10aa, with 7aa overlapping and ELISA screening of scFv against each peptide was performed in duplicate. Screening was performed using naked peptides in a standard plate or biotinylated peptides using avidin-plates. The list of overlapping peptides was as follows:
(§3) ELISA with biotin-conjugated peptides (5 μg/mL) was performed very similar to described above with minor modifications.
(ELISA stands for enzyme-linked immunosorbent assay.)

Test [2] concerns the target T2, biotin-peptide MTPTDFTSPI (human, also: prints MTPTDFTSP, without I10).
T2 peptide: Biotin-MTPTDFTSPI
Kind of test: ELISA biotin-peptide; scFv 10 ug/mL; repI. As for the experimental part: as §1, §2, §3

For test [3], the target named is T3, biotin-peptide MADDYGSEST (human).
T3 peptide: Biotin-MADDYGSEST
As to the kind of experiment: ELISA biotin-peptide; scFv 10 ug/mL; repI. As for the experimental part:
as §1, §2, §3

Test [4] addresses T4, biotin-peptide SESTSSMEDY (human).
T4 peptide: Biotin-SESTSSMEDY
Kind of test: ELISA biotin-peptide; scFv 10 ug/mL; repI. How it is done: as §1, §2, §3

Test [5] has as its target T5, biotin-peptide YVNFNFTDFY (human).
T5 peptide: Biotin-YVNFNFTDFY
As to the kind of experiment: ELISA biotin-peptide; scFv 10 ug/mL; repI. As for the experimental part: as §1, §2, §3

For test [6], the target named is T6, biotin-peptide TDFTSPIPNM (human).
T6 peptide: Biotin-TDFTSPIPNM
Kind of test: ELISA biotin-peptide; scFv 10 ug/mL; repI. As for the experimental part:
as §1, §2, §3

Test [7] addresses T7, biotin-peptide YCEKNNVRQF (human).
T7 peptide: Biotin-YCEKNNVRQF
As to the kind of experiment: ELISA biotin-peptide; scFv 10 ug/mL; repI. As for the experimental part:
as §1, §2, §3

The target of test [8] is T8, biotin-peptide SSMEDYVNFN (human).
T8 peptide: Biotin-SSMEDYVNFN
As to the kind of experiment: ELISA biotin-peptide; scFv 10 ug/mL; repI. As for the experimental part:
as §1, §2, §3

Test [9] concerns the target T9, biotin-peptide MEDYVNFNFT (human).
T9 peptide: Biotin-MEDYVNFNFT
As to the kind of experiment: ELISA biotin-peptide; scFv 10 ug/mL; repI. As for the experimental part:
as §1, §2, §3

Test [10] concerns the target T10, biotin-peptide TDFYCEKNNV (human).
T10 peptide: Biotin-TDFYCEKNNV
As to the kind of experiment: ELISA biotin-peptide; scFv 10 ug/mL; repI. As for the experimental part: as §1, §2, §3

The target in test [11] is T11, biotin-peptide SMEDYVNFNF (human).
T11 peptide: Biotin-SMEDYVNFNF
Kind of test: ELISA biotin-peptide; scFv 10 ug/mL; repI. As for the experimental part: as §1, §2, §3

For test [12], the target named is T12, naked peptide 1b MEDYVNFNFTDFYCEKNNVRQFAS (human).
T12 construct: also called region amino acids 25 to 48
T12 peptide: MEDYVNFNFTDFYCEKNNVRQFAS
Kind of test: ELISA naked 24-mer; repII.

Test [13] has as its target T13, naked peptide 1a MTPTDFTSPIPNMADDYGSESTSS (human).
T13 construct: also called region 1-24
T13 peptide: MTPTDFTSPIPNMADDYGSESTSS
Kind of test: ELISA naked 24-mer; repII.

The target in test [14] is T12, naked peptide 1b …. Kind of test: ELISA naked 24-mer; repI.
Test [15] deals with T13, naked peptide 1a …. As to the kind of experiment: ELISA naked 24-mer; repI.
The target of test [16] is T14, Peptide 1, non-conjugated (MADDYGSEST-C) (human).
T14 construct: With the extra C-terminal Cys
T14 peptide: MADDYGSESTC
As to the kind of experiment: ELISA; Ab 0.01563 ug/mL; repII. As for the experimental part:
(§4) In brief, plates with each non-conjugated peptide (50 μg/mL) or BSA-conjugated peptide (5 μg/mL) were coated in 0.58M carbonate-bicarbonate buffer pH9.5, 100 μL/well, at 4° C. […] After washing, wells were incubated with the 3, 3′,5,5′-Tetramethylbenzidine (TMB) HRP substrate and reactions were stopped with 2M HCl and OD450 was recorded.

In test [17] the target is T15, Peptide 1-BSA (MADDYGSEST-C conjugated to BSA) (human).
T15 peptide: MADDYGSESTC(BSA)
Kind of test: ELISA; Ab 0.01563 ug/mL; repII. As for the experimental part:
as §4

The target in test [18] is T16, Peptide 4-BSA (SMEDYVNFNF-C conjugated to BSA) (human).
T16 peptide: SMEDYVNFNFC(BSA)
As to the kind of experiment: ELISA; Ab 0.01563 ug/mL; repII. How it is done:
as §4

Test [19] has as its target T17, BSA (negative control coating) (bovine, UniProt P02769 25-607).
T17 construct: also called Negative control BSA
Kind of test: ELISA; Ab 0.01563 ug/mL; repII. How it is done: as §4

The target of test [20] is T18, Peptide 4, non-conjugated (SMEDYVNFNF-C) (human).
T18 construct: With the extra C-terminal Cys
T18 peptide: SMEDYVNFNFC
Kind of test: ELISA; Ab 0.01563 ug/mL; repII. As for the experimental part:
as §4

The target of test [21] is T1, biotin-peptide TSSMEDYVNF
As to the kind of experiment: ELISA biotin-peptide; scFv 0.15625 ug/mL; repII. As for the experimental part: as §1, §3
(§5) A full curve ELISA was performed for each positive scFv/biotin-peptide pair in order to confirm previous results. Tables 15-17 show ELISA results of the dose-dependent full curve for each positive peptide with scFv “CCR9_HUM”, “Comp-2” and “Comp-3”, respectively.

The target of test [22] is T8, biotin-peptide SSMEDYVNFN
Kind of test: ELISA biotin-peptide; scFv 0.15625 ug/mL; repII. As for the experimental part: as §1, §3, §5

Test [23] concerns the target T9, biotin-peptide MEDYVNFNFT
Kind of test: ELISA biotin-peptide; scFv 0.15625 ug/mL; repII. How it is done: as §1, §3, §5

Test [24] deals with T11, biotin-peptide SMEDYVNFNF
As to the kind of experiment: ELISA biotin-peptide; scFv 0.15625 ug/mL; repII. As for the experimental part: as §1, §3, §5

Where no end group is shown, it is not given here. The star is where a group is joined. Biotin = O=C1N[C@H]2[C@H](CS[C@H]2CCCCC(=O)*)N1

T17 sequence (P02769 25-607 limits assumed): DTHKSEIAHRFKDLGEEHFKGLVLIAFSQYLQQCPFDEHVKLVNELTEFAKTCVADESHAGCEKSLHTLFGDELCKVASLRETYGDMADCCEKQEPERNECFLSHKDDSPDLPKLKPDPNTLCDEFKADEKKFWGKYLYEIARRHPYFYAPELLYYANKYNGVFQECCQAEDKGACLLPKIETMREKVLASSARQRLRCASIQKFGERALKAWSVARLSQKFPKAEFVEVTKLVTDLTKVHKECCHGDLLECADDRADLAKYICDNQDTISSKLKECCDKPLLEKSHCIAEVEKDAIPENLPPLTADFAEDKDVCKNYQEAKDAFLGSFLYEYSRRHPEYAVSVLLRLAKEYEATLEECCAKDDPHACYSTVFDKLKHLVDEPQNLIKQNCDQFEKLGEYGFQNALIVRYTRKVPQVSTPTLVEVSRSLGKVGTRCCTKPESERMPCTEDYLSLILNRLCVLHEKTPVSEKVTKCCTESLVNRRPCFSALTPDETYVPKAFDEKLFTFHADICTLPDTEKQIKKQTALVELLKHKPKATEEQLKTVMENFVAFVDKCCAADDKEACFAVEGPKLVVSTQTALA

B1: Comparative antibody 1 (Comp-1) scFv, SEQ ID NO: 10 from WO2023/037125 A1, His-tagged (scFv)
scFv: QVQLKESGPGLVQPSQTLSLTCTVSGFSVASYDMHWVRLPPGKGLEWMGIIWANGNTHYNSGLKSRLSISRDTSKSQVFLKMNSLQTEDTAIYFCTRGGFAYWGQGTLVTVSSGGGGSGGGGSGGGGSGGGGSDVVMTQTPVSLSVSLGGQVSISCRSSQSLVHNNGNTYLSWYLQKPGQSPQLLIYKVSNRFSGVSDRFSGSGSGTDFTLKISRVEPDDLGVYYCGQGTQYPTFGGGTKLELKHHHHHH
On to B1, for which the OD450 in test [1] came out at 0.1 OD; in test [2], 0.08 OD; in test [3], 0.08 OD; in test [4], 0.13 OD; in test [5] it was 0.1 OD; in test [6] it was 0.06 OD. Further, the OD450 in [7] came to 0.06 OD; in [8] it was 0.1 OD; in [9], 0.16 OD; in test [10] it was 0.08 OD; in test [11], 0.15 OD; in test [12] it was 0.06 OD. Further, the OD450 in [13] was 0.1 OD; in test [14] it was 0.09 OD; in test [15] it was 0.08 OD.

B2: Comparative antibody 2 (Comp-2) scFv, 243LO326 (VH SEQ ID NO: 51 and VL SEQ ID NO: 52 of WO 2022/195028 A2), His-tagged (scFv)
scFv: QVQLVQSGAEVKKPGASVKVSCKASGYTFTSYWMHWVRQAPGQGLEWIGVIYPGNSDTRYNQKFKGRVTITRDTSASTAYMELSSLRSEDTAVYYCTRDYYSNYVYYYAMDYWGQGTTVTVSSGGGGSGGGGSGGGGSGGGGSDIVMTQTPLSLPVTPGEPASISCRSSQSLVHPNRNTYLHWYLQKPGQSPQLLIYKVSNRFSGVPDRFSGSGSGTDFTLKISRVEAEDVGVYYCSQSTHVPWTFGQGTKLEIKHHHHHH
Consider B2, for which the OD450 amounted to 0.08 OD in test [1]; 0.08 OD in test [2]; 0.08 OD in test [3]; 0.06 OD in test [4]; 1.93 OD in test [5]; 0.1 OD in test [6]. In addition, the OD450 in test [7] was found to be 0.09 OD; in [8], 0.12 OD; in test [9], 0.1 OD; in test [10], 0.06 OD; in test [11] it was 0.09 OD; in [12], 2.01 OD. Moreover, the OD450 in test [13] worked out at 0.08 OD; in test [14] it was 1.97 OD; in test [15] it was 0.09 OD.

B3: anti-CCR9 antibody clone 115 (murine, from hybridoma #115) (antibody, V domains shown)
VH: QVQLKQSGPELVKPGTSVRVSCTASGYSFTDYIIYWVKQSHGRSLEWIGYIDPNNYNTRYSQKFKGKATLTVDKSSTSAFMHLNSLTSDDSAVYYCARDVYWGQGTTLTVSS
VL: DVVMTQTPLSLTVSLGDQASISCRSSQSLVHSNGKTYLQWYLQKPGQSPKLLIYKVSNRFSGVPDRFSGSGSGTDFTLKISRVEAEDLGVYFCAQSTHVWTFGGGTKLEIKR
notes: Mouse IgG1
B3: the OD450 in [16] stood at 0.01 OD; in test [17], 0.01 OD; in test [18], 1.03 OD; in test [19], 0.01 OD; in test [20], 0.46 OD.

B4: Comparative antibody 3 (Comp-3) scFv, SR_92R (Somovilla-Crespo et al. 2018), His-tagged (scFv)
scFv: EVKLEESGGGLVQPGGSMKLSCVASGFTFNKFWMNWVRQSPEKGLEWVAEIRLKSNNYATHYAESVKGRFTISRDDSKSSVYLQMNNLRAEDTGIYYCASDGWFAYWGQGTLVTVSAGGGGSGGGGSGGGGSGGGGSDVVMTQTPLSLPVSLGDQASISCRSSQSLVHSNGNTYLNWCLQRPGQSPKSLIYKVSNRFSGVPDRFSGSGSGTDFTLKISRVEAEDLGVYFCSQSTHFPRTFGGGTKLEIKRHHHHHH
In the case of B4, the OD450 in [1] stood at 0.1 OD; in test [2] it was 0.1 OD; in [3], 0.09 OD; in [4], 0.15 OD; in test [5], 0.1 OD; in test [6] it was 0.11 OD. Also, the OD450 is 0.11 OD in [7]; 0.15 OD in test [8]; 0.1 OD in test [9]; 0.08 OD in test [10]; 0.1 OD in test [11]; 0.09 OD in test [12]. For the same molecule, the OD450 in [13] was determined as 1.35 OD; in test [14] it was 0.11 OD; in test [15], 1.38 OD.

B5: CCR9_HUM2 scFv (humanized anti-CCR9 scFv, SEQ ID NO: 17 with C-terminal 6xHis tag) (scFv)
scFv: QVQLVQSGAEVKKPGASVKVSCTASGYSFTDYIIYWVKQAHGQSLEWMGYIDPNNYNTRYSQKFQGKVTITVDKSSTSAYMELNSLTSDDTAVYYCARDVYWGQGTTVTVSSGGGGSGGGGSGGGGSGGGGSDVVMTQTPLSLSVTPGQPASISCRSSQSLVHSNGKTYLQWYLQKPGQSPKLLIYKVSNRFSGVPDRFSGSGSGTDFTLKISRVEAEDVGVYFCAQSTHVWTFGGGTKVEIKRAHHHHHH
As to B5, the OD450 in test [1] turned out to be 2.05 OD; in [2] it was 0.09 OD; in test [3] it was 0.09 OD; in test [4] it was 0.08 OD; in test [5], 0.17 OD; in [6] it was 0.12 OD. For the same molecule, the OD450 in test [7] worked out at 0.07 OD; in test [8] it was 2.45 OD; in test [9] it was 2.56 OD; in test [10] it was 0.08 OD; in [11], 2.48 OD; in [12] it was 2.24 OD. Besides, the OD450 was 0.08 OD in [13]; 0.18 OD in [21]; 1.59 OD in test [22]; 1.37 OD in test [23]; 1.6 OD in test [24]; 2.22 OD in test [14]. The same molecule came in with an OD450 in test [15] of 0.05 OD.
